Laboratory results taken from patent publication US20060281901.

Molecular target: ubiquitin-amyloid-β peptide fusion protein (H6Ub-Aβ42)

B1: yeast ubiquitin hydrolase-1 (YUH-1) (protein)
chain: MSGENRAVVPIESNPEVFTNFAHKLGLKNEWAYFDIYSLTEPELLAFLPRPVKAIVLLFPINEDRKSSTSQQITSSYDVIWFKQSVKNACGLYAILHSLSNNQSLLEPGSDLDNFLKSQSDTSSSKNRFDDVTTDQFVLNVIKENVQTFSTGQSEAPEATADTNLHYITYVEENGGIFELDGRNLSGPLYLGKSDPTATDLIEQELVRVRVASYMENANEEDVLNFAMLGLGPNWE
electrophoresis with Coomassie staining of the enzyme reactant (cleavage of the fusion protein by ubiquitin hydrolase): the binding site between ubiquitin and amyloid-β peptide in the fusion protein is precisely cut by the action of ubiquitin hydrolase and the fusion protein is separated into a ubiquitin fragment and an amyloid-β peptide fragment
